Assay results published in publication PMC12719649.

Assays:
[1] = molecular target: MED14-NTD+H+M+MED26, 16-subunit recombinant human core Mediator with f:MED14-NTD (1-760) (human) (UniProt O60244)
[2] = molecular target: MED14-NTD+H+M+MED26, 16-subunit recombinant human core Mediator with f:MED14-NTD (1-760) (human) (UniProt O60244); test: co-IP; competition: MED14-NTD+H+M+MED26 on anti-MED30 beads with Pol II and recombinant RPB1 as competitor, equal amounts of His:RPB1 or up to 10-fold more f:RPB1 or f:ΔCTD RPB1 than Pol II; western blot

“RNA polymerase II (Pol II), Gdown1-free, purified from HeLa nuclear extract (from UniProt P24928 1-1970; P30876 1-1174; P19387 1-275; O15514 1-142; P19388 1-210; P61218 1-127; P62487 1-172; P52434 1-150; P36954 1-125; P62875 1-67; P52435 1-117; P53803 1-58) (complex)” gave a basal in vitro transcription from AdML core promoter templates in Mediator-depleted HeLa NE, 50 nM complex, against Mediator-deficient controls [1] of over 15 fold.
“recombinant His:RPB1 (from UniProt P24928 1-1970) (natural protein)” was tested, and the percent reversal of the MED14-NTD+H+M+MED26-Pol II interaction at a 1:1 ratio [2] was under 50%.
